Experimental data published in patent publication US20230190800A1.

Target: CD48 (UniProt P09326)
Assay: cell-based or functional assay

UniProt P09326, sequence (P09326 27-220 limits assumed): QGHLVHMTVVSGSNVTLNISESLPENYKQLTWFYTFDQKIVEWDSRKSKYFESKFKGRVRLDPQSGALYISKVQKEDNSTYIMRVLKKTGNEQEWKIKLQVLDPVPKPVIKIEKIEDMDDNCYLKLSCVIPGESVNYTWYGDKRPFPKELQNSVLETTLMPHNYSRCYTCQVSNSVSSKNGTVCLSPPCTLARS

For “2B4 (CD244) (from UniProt Q9BZW8 22-370) (receptor)”, the NK cells expressing MIP-1α after incubation with S2 cells expressing B7H7 and CD48 was 70% and the NK cells with at least 3 different responses after incubation with S2 cells expressing B7H7 and CD48 was 10%.
